Assay results: the supplement of paper PMC11316812
± gives the standard deviation of the averaged measurements.

Experiments:
MCF7 = assay: percentage of EdU-negative (G0-arrested) nuclei per well, 72 h; higher = more G0 arrest; conditions: reference: sequence is the full UniProt precursor, the tested protein was the secreted form or ectodomain
hTERT-HMEC = assay: as above; conditions: reference: sequence is the full UniProt precursor, the tested protein was the secreted form or ectodomain
[1] = protein concentration 0.0225 µM
[2] = protein concentration 0.0257143 µM
[3] = protein concentration 0.257143 µM
[4] = protein concentration 0.0119275 µM
[5] = protein concentration 0.119275 µM
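Note: secreted proteins added to cultured cells, EdU pulse at the end, nuclei found by Hoechst imaging, EdU status from nuclear versus surrounding ring intensity ratio, PBS as neutral control.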

Sequence	percentage of EdU-negative (MCF7; [1]) [%]	percentage of EdU-negative (MCF7; protein concentration 0.225 µM) [%]	percentage of EdU-negative (hTERT-HMEC; [1]) [%]	percentage of EdU-negative (hTERT-HMEC; protein concentration 0.225 µM) [%]	further results
MQGPWVLLLLGLRLQLSLGVIPAEEENPAFWNRQAAEALDAAKKLQPIQKVAKNLILFLGDGLGVPTVTATRILKGQKNGKLGPETPLAMDRFPYLALSKTYNVDRQVPDSAATATAYLCGVKANFQTIGLSAAARFNQCNTTRGNEVISVMNRAKQAGKSVGVVTTTRVQHASPAGTYAHTVNRNWYSDADMPASARQEGCQDIATQLISNMDIDVILGGGRKYMFPMGTPDPEYPADASQNGIRLDGKNLVQEWLAKHQGAWYVWNRTELMQASLDQSVTHLMGLFEPGDTKYEIHRDPTLDPSLMEMTEAALRLLSRNPRGFYLFVEGGRIDHGHHEGVAYQALTEAVMFDDAIERAGQLTSEEDTLTLVTADHSHVFSFGGYTLRGSSIFGLAPSKAQDSKAYTSILYGNGPGYVFNSGVRPDVNESESGSPDYQQQAAVPLSSETHGGEDVAVFARGPQAHLVHGVQEQSFVAHVMAFAACLEPYTACDLAPPACTTDAAHPVAASLPLLAGTLLLLGASAAP	24.8 ± 1.8	24.4 ± 0.42	5.37 ± 0.33	6.16 ± 1.5	
MQIITTALVCLLLAGMWPEDVDSKSMQVPFSRCCFSFAEQEIPLRAILCYRNTSSICSNEGLIFKLKRGKEACALDTVGWVQRHRKMLRHCPSKRK	24.1 ± 3.4	25.4 ± 0.28	4.79 ± 0.52	12 ± 1.1	
MQKVTLGLLVFLAGFPVLDANDLEDKNSPFYYDWHSLQVGGLICAGVLCAMGIIIVMSAKCKCKFGQKSGHHPGETPPLITPGSAQS					percentage of EdU-negative (MCF7; [2]): 26.4 ± 0.91%; percentage of EdU-negative (MCF7; [3]): 24.9 ± 1%; percentage of EdU-negative (hTERT-HMEC; [2]): 4.87 ± 0.45%; percentage of EdU-negative (hTERT-HMEC; [3]): 4.969 ± 0.0066%
MQLPLALCLVCLLVHTAFRVVEGQGWQAFKNDATEIIPELGEYPEPPPELENNKTMNRAENGGRPPHHPFETKDVSEYSCRELHFTRYVTDGPCRSAKPVTELVCSGQCGPARLLPNAIGRGKWWRPSGPDFRCIPDRYRAQRVQLLCPGGEAPRARKVRLVASCKCKRLTRFHNQSELKDFGTEAARPQKGRKPRPRARSAKANQAELENAY [Q9BQB4]	28.1 ± 1.4	34 ± 2	5.07 ± 1.1	18.6 ± 2.6	
MQLQASLSFLLILTLCLELRSELARDTIKDLLPNVCAFPMEKGPCQTYMTRWFFNFETGECELFAYGGCGGNSNNFLRKEKCEKFCKFT					percentage of EdU-negative (MCF7; [2]): 25.8 ± 1.5%; percentage of EdU-negative (MCF7; [3]): 24.81 ± 0.086%; percentage of EdU-negative (hTERT-HMEC; [2]): 4.34 ± 0.046%; percentage of EdU-negative (hTERT-HMEC; [3]): 4.94 ± 0.32%
MQLRNPELHLGCALALRFLALVSWDIPGARALDNGLARTPTMGWLHWERFMCNLDCQEEPDSCISEKLFMEMAELMVSEGWKDAGYEYLCIDDCWMAPQRDSEGRLQADPQRFPHGIRQLANYVHSKGLKLGIYADVGNKTCAGFPGSFGYYDIDAQTFADWGVDLLKFDGCYCDSLENLADGYKHMSLALNRTGRSIVYSCEWPLYMWPFQKPNYTEIRQYCNHWRNFADIDDSWKSIKSILDWTSFNQERIVDVAGPGGWNDPDMLVIGNFGLSWNQQVTQMALWAIMAAPLFMSNDLRHISPQAKALLQDKDVIAINQDPLGKQGYQLRQGDNFEVWERPLSGLAWAVAMINRQEIGGPRSYTIAVASLGKGVACNPACFITQLLPVKRKLGFYEWTSRLRSHINPTGTVLLQLENTMQMSLKDLL					percentage of EdU-negative (MCF7; protein concentration 0.021 µM): 24.8 ± 0.73%; percentage of EdU-negative (MCF7; protein concentration 0.21 µM): 24.3 ± 0.28%; percentage of EdU-negative (hTERT-HMEC; protein concentration 0.021 µM): 5.25 ± 0.8%; percentage of EdU-negative (hTERT-HMEC; protein concentration 0.21 µM): 4.6 ± 0.74%
MQLTRCCFVFLVQGSLYLVICGQDDGPPGSEDPERDDHEGQPRPRVPRKRGHISPKSRPMANSTLLGLLAPPGEAWGILGQPPNRPNHSPPPSAKVKKIFGWGDFYSNIKTVALNLLVTGKIVDHGNGTFSVHFQHNATGQGNISISLVPPSKAVEFHQEQQIFIEAKASKIFNCRMEWEKVERGRRTSLCTHDPAKICSRDHAQSSATWSCSQPFKVVCVYIAFYSTDYRLVQKVCPDYNYHSDTPYYPSG	28.1 ± 0.43	31.8 ± 2.5	6.5 ± 0.97	6.09 ± 1.7	
MQMPAMMSLLLVSVGLMEALQAQSHPITRRDLFSQEIQLDMALASFDDQYAGCAAAMTAALPDLNHTEFQANQVYADSWTLASSQWQERQARWPEWSLSPTRPSPPPLGFRDEHGVALLAYTANSPLHKEFNAAVREAGRSRAHYLHHFSFKTLHFLLTEALQLLGSGQRPPRCHQVFRGVHGLRFRPAGPRATVRLGGFASASLKHVAAQQFGEDTFFGIWTCLGAPIKGYSFFPGEEEVLIPPFETFQVINASRLAQGPARIYLRALGKHSTYNCEYIKDKKCKSGPCHLDNSAMGQSPLSAVWSLLLLLWFLVVRAFPDGPGLL	23.7 ± 1.5	25 ± 0.33	5.126 ± 0.0053	6.16 ± 2.3	
MQPLWLCWALWVLPLASPGAALTGEQLLGSLLRQLQLKEVPTLDRADMEELVIPTHVRAQYVALLQRSHGDRSRGKRFSQSFREVAGRFLALEASTHLLVFGMEQRLPPNSELVQAVLRLFQEPVPKAALHRHGRLSPRSARARVTVEWLRVRDDGSNRTSLIDSRLVSVHESGWKAFDVTEAVNFWQQLSRPRQPLLLQVSVQREHLGPLASGAHKLVRFASQGAPAGLGEPQLELHTLDLGDYGAQGDCDPEAPMTEGTRCCRQEMYIDLQGMKWAENWVLEPPGFLAYECVGTCRQPPEALAFKWPFLGPRQCIASETDSLPMIVSIKEGGRTRPQVVSLPNMRVQKCSCASDGALVPRRLQP					percentage of EdU-negative (MCF7; [4]): 25.8 ± 0.59%; percentage of EdU-negative (MCF7; [5]): 26.51 ± 0.11%; percentage of EdU-negative (hTERT-HMEC; [4]): 5.05 ± 0.39%; percentage of EdU-negative (hTERT-HMEC; [5]): 5.49 ± 0.4%
